Experimental data published in article PMC12207370, “Macrocyclic Peptide Probes for Immunomodulatory Protein CD59: Potent Modulators of Bacterial Toxin Activity and Antibody‐Dependent Cytotoxicity” (Angewandte Chemie (International Ed. in English), 2025).

Target: T1, biotinylated CD59 (Homo sapiens, UniProt P13987)
T1 construct: Recombinant soluble human CD59 with an additional C-terminal cysteine residue
T1 sequence (P13987 26-102 limits assumed): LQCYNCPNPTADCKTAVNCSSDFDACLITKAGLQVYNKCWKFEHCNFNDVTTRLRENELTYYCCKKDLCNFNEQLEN
Assay: mRNA-display cyclic peptide screen against CD59-biotin, NGS abundance after 6th selection round
Conditions: for Percentage Seq I: counts normalised by total counts of sample Seq I; for Percentage Seq I / Percentage Seq II: percentage of the pool; for Percentage Seq I / Percentage Seq II / Percentage Average / Percentage of the pool, averaged across the two sequencing samples / Percentage of the pool, Seq I / Percentage of the pool, Seq II: sheet R6; for Percentage Seq II: counts normalised by total counts of sample Seq II; for Percentage Average: percentage of the pool averaged across the two sequencing samples; for Counts Seq I / Counts Seq II: raw NGS counts of peptide sequence; for Counts Seq I: sequencing sample Seq I; for Counts Seq I / Counts Seq II / Counts (raw counts for peptide sequence), Seq I / Counts (raw counts for peptide sequence), Seq II: sheet R6 (6th selection round); for Counts Seq II: sequencing sample Seq II; for Counts (raw counts for peptide sequence), Seq I: NGS sample Seq I; for Counts (raw counts for peptide sequence), Seq II: NGS sample Seq II; for Percentage of the pool, averaged across the two sequencing samples: average of Seq I and Seq II; for Percentage of the pool, Seq I: counts normalised by total counts of NGS sample Seq I; for Percentage of the pool, Seq II: counts normalised by total counts of NGS sample Seq II
Source text: To discover novel non‐protein CD59 ligands, we screened a library of 10^12 cyclic peptides against CD59 using mRNA‐display (Figure 2a).^[ [23], [24], [25], [26], [27], [28], [29] ^] Briefly, an mRNA library was designed in which the start codon was reprogrammed from Met to N‐chloroacetyl‐D‐Tyr (ClAc‐D‐Tyr), followed by 10–12 randomly encoded natural amino acids, a Cys residue, a (GlySer)3 linker, and a stop codon. […] The total library diversity was 1.51 × 10^13 molecules, comprising 5.02 × 10^12 molecules of each macrocycle size, covering a subset of the maximum theoretical diversity of this library design. Following in vitro translation, ClAc‐D‐Tyr spontaneously reacts with either the C‐terminal Cys or a Cys in the random region, yielding macrocyclic thioether peptides. Hits from the library were identified through iterative enrichment and amplification against biotinylated CD59, then immobilized on streptavidin beads. Fifteen hit sequences (CP‐01 to CP‐15), enriched with abundance >1% relative to the total pool of recovered binders after the 6th round of selection, were synthesized by solid phase peptide synthesis (SPPS), without the (Gly‐Ser)3 linker.
Figure 2 Discovery of macrocyclic peptide ligands with nanomolar CD59 affinity using mRNA display. a) The selection process. PCR = polymerase chain reaction, SPPS = solid phase peptide synthesis. b) Table showing details of the peptides with nanomolar affinity for CD59 as well as the binding affinity of the lead inhibitor of CD59, rILYd4. K D values are presented as the average of three technical replicates ± SEM. Structures of all peptides and SPR sensograms are presented in Figures S1 and S2. *indicates the presented sequences are the variable regions of these cyclic peptides; each is flanked by an N‐terminal Ac‐D‐Tyr cyclized to a C‐terminal Cys. R6 abundance (%) is defined as (the given number of NGS reads for a given sequence/the total number of reads of unique sequences observed in NGS)*100 following the 6th selection round. c) Representative sensogram of the interaction between CP‐06 with immobilized CD59 by SPR analysis. Inset showing the equilibrium binding curve of CP‐06 to CD‐59. Below in the box are the association and dissociation rate constants of CP‐06. Concentrations are plotted in descending order from 800‐3.1 nM in line with their position on the legend. […] (nM)'; the box with Kon/Koff has no label of its own / ILYd4: the label may be cut off at the left edge (possibly 'rILYd4') / CP-02, KD: 15.3 ± 0.2, small print, 3 or 8 uncertain / CP-03, KD: 23.4 ± 0.7, small print / CP-06, KD: 11.3 ± 0.0, small print, 3 or 8 uncertain / CP-13, KD: 10.8 ± 0.7, small print, 8 or 6 uncertain / ILYd4, KD: 48.3 ± 1.1, small print, 8 and 3 uncertain
The mRNA-display cyclic peptide screen was performed against CD59-biotin by T.E.M: DNA templates for transcription were generated by PCR in a similar manner to that previously described.^2 RNA oligonucleotides were transcribed from the DNA templates using T7 RNA polymerase and purified by phenol/chloroform extraction followed by ethanol precipitation. Oligonucleotide concentrations were determined spectroscopically by absorbance at 260 nm. In the first selection round a 1:1:1 molar ratio of NNK10/NNK11/NNK12 was used. The procedure for selection rounds 2-6 is described below; round 1 was conducted at twice the scale.
RNA encoding for the peptide library ligated to a puromycin-modified oligonucleotide was […] (final [RNA] = 2.5 µM) using a customised PURE express kit (lacking release factor 1 and methionine, supplemented with […] initiator tRNA acylated with N-chloroacetyl-d-tyrosine prepared as previously described)^3 in a final volume of 5.6 µL for 1 hour at 37 °C.
This mixture was incubated at 42 °C for 1 hour before being diluted to 500 µL with PBS (10 mM Na-PO4 pH 7.4, 2.7 mM KCl, 137 mM NaCl) and 0.5 µL taken for subsequent use in qPCR. […]

Sequence	Percentage Seq I	Percentage Seq II	Percentage Average	Counts Seq I	Counts Seq II	Counts (raw counts for peptide sequence), Seq I	Counts (raw counts for peptide sequence), Seq II	Percentage of the pool, averaged across the two sequencing samples	Percentage of the pool, Seq I	Percentage of the pool, Seq II
YCWVRGSRNYT	0.064%	0.060%	0.062%	279	26	–	–	–	–	–
CIDVYGRMWA	0.086%	0.091%	0.088%	375	39	–	–	–	–	–
QFAHRISSCAS	0.032%	0.030%	0.031%	139	13	–	–	–	–	–
CFSHRRLEYGV	0.045%	0.046%	0.046%	197	20	–	–	–	–	–
CYGGRTFIYAWP	0.060%	0.072%	0.066%	263	31	–	–	–	–	–
YVFGNRSFARG	–	–	–	–	–	32	7	0.012%	0.007%	0.016%
AVAGSRHWAWG	0.039%	0.039%	0.039%	171	17	–	–	–	–	–
GYLNECHTLYTR	0.629%	0.645%	0.637%	2754	278	–	–	–	–	–
CFLTRASQLSGT	–	–	–	–	–	44	4	0.010%	0.010%	0.009%
HCWVRGSRNYS	–	–	–	–	–	46	5	0.011%	0.011%	0.012%
DPYCPFFPEFR	–	–	–	–	–	52	5	0.012%	0.012%	0.012%
CLDKWGRLWT	0.042%	0.042%	0.042%	182	18	–	–	–	–	–
IAFGSRFHSYQ	0.584%	0.647%	0.616%	2554	279	–	–	–	–	–
CFRYRVTPTSY	0.023%	0.014%	0.018%	100	6	–	–	–	–	–
WIRGSRFYRVI	0.387%	0.334%	0.360%	1692	144	–	–	–	–	–
WIRGSRWWTQS	0.033%	0.035%	0.034%	146	15	–	–	–	–	–
FKYGNSNFVRG	0.035%	0.039%	0.037%	154	17	–	–	–	–	–

Sequence	Percentage Seq I	Percentage Seq II	Percentage Average	Counts Seq I	Counts Seq II	Counts (raw counts for peptide sequence), Seq I	Counts (raw counts for peptide sequence), Seq II	Percentage of the pool, averaged across the two sequencing samples	Percentage of the pool, Seq I	Percentage of the pool, Seq II
WVYGSSTFRYQ	0.030%	0.030%	0.030%	133	13	–	–	–	–	–
CFSARAIHGSL	–	–	–	–	–	38	6	0.011%	0.009%	0.014%
HAFGNRSFTRG	–	–	–	–	–	82	5	0.015%	0.019%	0.012%
HVFGNRSYTRG	–	–	–	–	–	46	7	0.013%	0.011%	0.016%
VSRGDSTYTLF	0.031%	0.028%	0.030%	137	12	–	–	–	–	–
VYGSRYASIPFC	–	–	–	–	–	45	9	0.016%	0.010%	0.021%
LCSVRGSNDWI	0.073%	0.074%	0.074%	320	32	–	–	–	–	–
CYGGRTYIYAWS	0.018%	0.019%	0.018%	77	8	–	–	–	–	–
WRDRFGQCVL	–	–	–	–	–	27	7	0.011%	0.006%	0.016%
YVRGDAWTVLG	0.027%	0.019%	0.023%	117	8	–	–	–	–	–
LNPQGHCLLKL	–	–	–	–	–	55	8	0.016%	0.013%	0.019%
CFSWRLGPAEK	0.020%	0.028%	0.024%	87	12	–	–	–	–	–
FVTGNRDHARG	0.029%	0.035%	0.032%	126	15	–	–	–	–	–
SAWGNRRIQYY	0.034%	0.037%	0.035%	148	16	–	–	–	–	–
IASGSLHFVFY	0.027%	0.032%	0.030%	119	14	–	–	–	–	–
CFAGRLTIDAAAAAAARTGGG	–	–	–	–	–	62	9	0.018%	0.014%	0.021%
FVRGNSTSVLF	0.020%	0.019%	0.019%	88	8	–	–	–	–	–
